Assay results as given in PMC6405930, “Conservation of the Amyloid Interactome Across Diverse Fibrillar Structures” (Scientific Reports, 2019).

B1: Ig α-1 chain C region: plasma/CSF protein bound to fibrils (protein, UniProt P01876 1-398, looked up)
Immunoglobulin heavy constant …: ASPTSPKVFPLSLCSTQPDGNVVIACLVQGFFPQEPLSVTWSESGQGVTARNFPPSQDASGDLYTTSSQLTLPATQCLAGKSVTCHVKHYTNPSQDVTVPCPVPSTPPTPSPSTPPTPSPSCCHPRLSLHRPALEDLLLGSEANLTCTLTGLRDASGVTFTWTPSSGKSAVQGPPERDLCGCYSVSSVLPGCAEPWNHGKTFTCTAAYPESKTPLTATLSKSGNTFRPEVHLLPPPSEELALNELVTLTCLARGFSPKDVLVRWLQGSQELPREKYLTWASRQEPSQGTTTFAVTSILRVAAEDWKKGDTFSCMVGHEALPLAFTQKTIDRLADWQMPPPYVVLDLPQETLEEETPGANLWPTTITFLTLFLLSLFYSTALTVTSVRGPSGNREGPQY
B2: Inter-α-trypsin inhibitor heavy chain H2: plasma protein bound to fibrils (protein, UniProt P19823 55-702, looked up)
Inter-alpha-trypsin inhibitor …: SLPGESEEMMEEVDQVTLYSYKVQSTITSRMATTMIQSKVVNNSPQPQNVVFDVQIPKGAFISNFSMTVDGKTFRSSIKEKTVGRALYAQARAKGKTAGLVRSSALDMENFRTEVNVLPGAKVQFELHYQEVKWRKLGSYEHRIYLQPGRLAKHLEVDVWVIEPQGLRFLHVPDTFEGHFDGVPVISKGQQKAHVSFKPTVAQQRICPNCRETAVDGELVVLYDVKREEKAGELEVFNGYFVHFFAPDNLDPIPKNILFVIDVSGSMWGVKMKQTVEAMKTILDDLRAEDHFSVIDFNQNIRTWRNDLISATKTQVADAKRYIEKIQPSGGTNINEALLRAIFILNEANNLGLLDPNSVSLIILVSDGDPTVGELKLSKIQKNVKENIQDNISLFSLGMGFDVDYDFLKRLSNENHGIAQRIYGNQDTSSQLKKFYNQVSTPLLRNVQFNYPHTSVTDVTQNNFHNYFGGSEIVVAGKFDPAKLDQIESVITATSANTQLVLETLAQMDDLQDFLSKDKHADPDFTRKLWAYLTINQLLAERSLAPTAAAKRRITRSILQMSLDHHIVTPLTSLVIENEAGDERMLADAPPQDPSCCSGALYYGSKVVPDSTPSWANPSPTPVISMLAQGSQVLESTPPPHVMRVEND
B3: Complement C1r subcomponent: plasma protein bound to fibrils (protein, UniProt P00736 18-705, looked up)
Complement C1r subcomponent: SIPIPQKLFGEVTSPLFPKPYPNNFETTTVITVPTGYRVKLVFQQFDLEPSEGCFYDYVKISADKKSLGRFCGQLGSPLGNPPGKKEFMSQGNKMLLTFHTDFSNEENGTIMFYKGFLAYYQAVDLDECASRSKSGEEDPQPQCQHLCHNYVGGYFCSCRPGYELQEDTHSCQAECSSELYTEASGYISSLEYPRSYPPDLRCNYSIRVERGLTLHLKFLEPFDIDDHQQVHCPYDQLQIYANGKNIGEFCGKQRPPDLDTSSNAVDLLFFTDESGDSRGWKLRYTTEIIKCPQPKTLDEFTIIQNLQPQYQFRDYFIATCKQGYQLIEGNQVLHSFTAVCQDDGTWHRAMPRCKIKDCGQPRNLPNGDFRYTTTMGVNTYKARIQYYCHEPYYKMQTRAGSRESEQGVYTCTAQGIWKNEQKGEKIPRCLPVCGKPVNPVEQRQRIIGGQKAKMGNFPWQVFTNIHGRGGGALLGDRWILTAAHTLYPKEHEAQSNASLDVFLGHTNVEELMKLGNHPIRRVSVHPDYRQDESYNFEGDIALLELENSVTLGPNLLPICLPDNDTFYDLGLMGYVSGFGVMEEKIAHDLRFVRLPVANPQACENWLRGKNRMDVFSQNMFCAGHPSLKQDACQGDSGGVFAVRDPNTDRWVATGIVSWGIGCSRGYGFYTKVLNYVDWIKKEMEEED

How the values were obtained:
[1] = system: T1, FAS4-AD aggregates; test: Fibril incubation with CSF, quantitative MS/MS of bound proteins; format: binding, human; parameters: key to Identification status of CSF protein bound: FAS4-AD: *: Identified, but not quantified; —: Not identified in any of the samples; settings: symbol cells
T1 construct: aggregates of a mutated version of the FAS1-4 domain of TGFBIp

[2] = system: T2, Ab1 fibrils; test: Fibril incubation with plasma, quantitative MS/MS of bound proteins; format: binding, human; settings: 50:1 w/w plasma protein:fibril
T2 construct: Synthetic amyloid β peptide 1–40 was purchased from Caslo Aps (Lyngby, Denmark); purchased Caslo Aps (Lyngby, Denmark); host or cells: synthetic peptide
Description: (§1) Plasma and CSF solutions were centrifuged (40,000 g, 20 min) to remove any aggregates. The protein concentration was determined using 280 nm absorbance assuming 1 Abs = 1 mg/mL. Samples with fibril material (20 μg), plasma (500 μg) or CSF (40 μg) proteins were prepared in 200 μL PBS buffer with 5 mM EDTA. Control samples (without fibril material) were prepared similarly. All samples were incubated at room temperature for one hour under gentle agitation. Fibrils and fibril-bound proteins were pelleted by centrifugation at 17,000 g for 30 minutes. The supernatant (175 μL) was removed and the aggregate was re-suspended in 175 μL PBS and pelleted again before further preparation for gel analysis and spin-filter assisted digest for quantitative MS/MS.
(§2) The fibril-protein pellets were transferred to spin-filters (0.22 μm), washed twice in PBS (100 μL) and once in 1 M NaCl (100 μL). The fibrils and fibril-bound proteins were dissolved by one-hour incubation in 100 μL 6 M guanidinium chloride followed by elution from the spin-filter. The eluted proteins were loaded onto a 3 kDa MWCO filter unit for filter-assisted unfolding, reduction, alkylation, and trypsin digestion. In brief, samples were washed twice in 8 M urea, once in 8 M urea with 50 mM DTT, once in 8 M urea with 50 mM iodoaceteamide, and twice in 8 M Urea. The filter units were dried by centrifugation (14,000 g in 30 minutes) after every addition. Trypsin digestion was carried out with 0.25 μg sequencing grade trypsin from Sigma Aldrich in 50 mM ammonium bicarbonate overnight at 37 °C. The tryptic peptides were collected by centrifugation, acidified with TFA (0.1%) and micro-purified using POROS R2 column material (Applied Biosystems) packed in P200 pipette tips (Sarstedt).
(§3) LC-MS/MS analyses were performed on an EASY-nLC II system (Thermo Fisher Scientific) connected to a TripleTOF 5600+ mass spectrometer (Sciex) equipped with a NanoSpray III source (Sciex) and operated under Analyst TF 1.6.0 control.
(§4) The micro-purified tryptic peptides were dissolved in 0.1% formic acid, injected and trapped on an in-house packed trap column (2 cm × 100 μm I.D) with RP ReproSil-Pur C18-AQ 3 μm resin (Dr. Maisch GmbH). Peptides were eluted from the trap column and separated on a 15 cm analytical column (75 μm i.d.) packed in-house in a pulled emitter with RP ReproSil-Pur C18-AQ 3 μm resin (Dr. Maisch GmbH). Elution from the analytical column was performed with a linear gradient from 5% to 35% phase B (90% acetonitrile with 0.1% formic acid) over 20 min for protein identification and 50 min for quantitative analysis, respectively.
(§5) All samples were analysed three times, yielding nine MS/MS experiments for each fibril for both plasma and CSF. For the area-based extracted ion chromatogram (XIC) quantification, the acquisition method was set up as an information-dependent acquisition (IDA) experiment collecting up to 25 MS/MS spectra in each 1.6 sec cycle using an exclusion window of 6 sec.
(§6) XIC quantification was based on the average ion intensity of the three most abundant peptides for each protein. Only proteins quantified in at least four out of nine MS/MS experiments per fibril were included in the quantification. The total ion scores were visualized after grouping the proteins according to function (Figure S11).
(§7) For each MS/MS experiment, the ion intensities of the individual proteins were normalized to the total ion intensity of that MS/MS experiment to achieve a relative protein composition. The contribution of each protein was averaged over all nine MS/MS experiments (Tables 1 and 2).

[3] = target: T3, αSN fibrils (Homo sapiens, UniProt P37840); test: as above; format: binding; parameters: key to Identification status of plasma protein bound: αSN: *: Identified, but not quantified; —: Not identified in any of the samples; settings: for Identification status of plasma protein bound: αSN: symbol cells
Description: as §1, with “Samples with fibril material (20 μg), plasma (500 μg) or CSF (40 μg) proteins were prepared in 200 μL PBS buffer with 5 mM EDTA.” left out
as §2, §3, §4, §5, §6, §7

[4] = target: T4, glucagon fibrils (Homo sapiens, UniProt P01275); test: as above; format: binding; settings: 50:1 w/w plasma protein:fibril
T4 construct: fibrils of the peptide hormone glucagon
Description: as §1, with “Samples with fibril material (20 μg), plasma (500 μg) or CSF (40 μg) proteins were prepared in 200 μL PBS buffer with 5 mM EDTA.” left out
as §2, §3, §4, §5, §6, §7

[5] = system: T2, Ab1 fibrils; test: Fibril incubation with CSF, quantitative MS/MS of bound proteins; format: binding, human; parameters: key to Identification status of CSF protein bound: Ab1: *: Identified, but not quantified; —: Not identified in any of the samples; settings: symbol cells
[6] = system: T1, FAS4-AD aggregates; test: Fibril incubation with plasma, quantitative MS/MS of bound proteins; format: binding, human; parameters: key to Identification status of plasma protein bound: FAS4-AD: *: Identified, but not quantified; —: Not identified in any of the samples; settings: for Identification status of plasma protein bound: FAS4-AD: symbol cells
Description: as §1, with “Samples with fibril material (20 μg), plasma (500 μg) or CSF (40 μg) proteins were prepared in 200 μL PBS buffer with 5 mM EDTA.” left out
as §2, §3, §4, §5, §6, §7

[7] = system: T5, Ab2 fibrils; test: Fibril incubation with CSF, quantitative MS/MS of bound proteins; format: binding, human; parameters: key to Identification status of CSF protein bound: Ab2: *: Identified, but not quantified; —: Not identified in any of the samples; settings: symbol cells
T5 construct: Two structurally distinct fibrils of the Aβ(1–40) peptide associated with AD

[8] = system: T5, Ab2 fibrils; test: Fibril incubation with plasma, quantitative MS/MS of bound proteins; format: binding, human; settings: 50:1 w/w plasma protein:fibril
Description: as §1, with “Samples with fibril material (20 μg), plasma (500 μg) or CSF (40 μg) proteins were prepared in 200 μL PBS buffer with 5 mM EDTA.” left out
as §2, §3, §4, §5, §6, §7

[9] = target: T6, C-36 fibrils (Homo sapiens, UniProt P01009); test: Fibril incubation with CSF, quantitative MS/MS of bound proteins; format: binding; settings: 4:1 w/w CSF protein:fibril
T6 construct: the 36 residue C-terminal fragment of α1-antitrypsin (C-36)

[10] = target: T3, αSN fibrils; test: as above; format: binding; parameters: key to Identification status of CSF protein bound: αSN: *: Identified, but not quantified; —: Not identified in any of the samples; settings: symbol cells
Description: as §1, with “Samples with fibril material (20 μg), plasma (500 μg) or CSF (40 μg) proteins were prepared in 200 μL PBS buffer with 5 mM EDTA.” left out
as §2, §3, §4, §5, §6, §7

[11] = target: T4, glucagon fibrils; test: as above; format: binding; settings: 4:1 w/w CSF protein:fibril
[12] = target: T6, C-36 fibrils; test: Fibril incubation with plasma, quantitative MS/MS of bound proteins; format: binding; settings: 50:1 w/w plasma protein:fibril
Description: as §1, with “Samples with fibril material (20 μg), plasma (500 μg) or CSF (40 μg) proteins were prepared in 200 μL PBS buffer with 5 mM EDTA.” left out
as §2, §3, §4, §5, §6, §7

T6 sequence (P01009 383-418 limits assumed): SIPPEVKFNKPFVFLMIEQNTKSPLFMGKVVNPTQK
T4 sequence (P01275 53-81 limits assumed): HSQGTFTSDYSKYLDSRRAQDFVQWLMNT

| Molecule | Identification status of CSF protein bound: FAS4-AD [1] | Relative composition of plasma proteins bound: Ab1 [2] | Relative composition of plasma proteins bound: αSN ([3]; 50:1 w/w plasma protein:fibril) | Relative composition of plasma proteins bound: Glucagon [4] | Identification status of CSF protein bound: Ab1 [5] | Relative composition of plasma proteins bound: FAS4-AD ([6]; 50:1 w/w plasma protein:fibril) | Identification status of CSF protein bound: Ab2 [7] | Relative composition of plasma proteins bound: Ab2 [8] | Relative composition of CSF proteins bound: C-36 [9] | Identification status of CSF protein bound: αSN [10] | Relative composition of CSF proteins bound: Glucagon [11] | Relative composition of plasma proteins bound: C-36 [12] | Identification status of plasma protein bound: αSN [3] | Identification status of plasma protein bound: FAS4-AD [6] |
| --- | --- | --- | --- | --- | --- | --- | --- | --- | --- | --- | --- | --- | --- | --- |
| B1 | — | 1.3 ± 0.1 % of total protein | 0.9 ± 0.3 % of total protein | 1.7 ± 0.0 % of total protein | * | 3.9 ± 1.6 % of total protein | * | 1.3 ± 0.3 % of total protein | 0.5 ± 0.1 % of total protein | — | 0.2 ± 0.1 % of total protein | 1.4 ± 0.4 % of total protein |  |  |
| B2 |  | 0.1 ± 0.0 % of total protein |  | 2.7 ± 0.2 % of total protein |  |  |  | 0.1 ± 0.0 % of total protein |  |  |  | 0.3 ± 0.1 % of total protein | * | — |
| B3 |  | 0.2 ± 0.0 % of total protein |  | 0.1 ± 0.0 % of total protein |  |  |  | 0.4 ± 0.1 % of total protein |  |  |  | 0.3 ± 0.1 % of total protein | * | — |
